Experimental data as given in publication doi:10.1101/2024.05.02.592151 (bioRxiv, 2024).

Tests used:
[1] = biological target: T1, CAP-G2 (in recombinant human condensin II) (human, UniProt Q86XI2 1-1143); assay: cross-linking
T1 sequence: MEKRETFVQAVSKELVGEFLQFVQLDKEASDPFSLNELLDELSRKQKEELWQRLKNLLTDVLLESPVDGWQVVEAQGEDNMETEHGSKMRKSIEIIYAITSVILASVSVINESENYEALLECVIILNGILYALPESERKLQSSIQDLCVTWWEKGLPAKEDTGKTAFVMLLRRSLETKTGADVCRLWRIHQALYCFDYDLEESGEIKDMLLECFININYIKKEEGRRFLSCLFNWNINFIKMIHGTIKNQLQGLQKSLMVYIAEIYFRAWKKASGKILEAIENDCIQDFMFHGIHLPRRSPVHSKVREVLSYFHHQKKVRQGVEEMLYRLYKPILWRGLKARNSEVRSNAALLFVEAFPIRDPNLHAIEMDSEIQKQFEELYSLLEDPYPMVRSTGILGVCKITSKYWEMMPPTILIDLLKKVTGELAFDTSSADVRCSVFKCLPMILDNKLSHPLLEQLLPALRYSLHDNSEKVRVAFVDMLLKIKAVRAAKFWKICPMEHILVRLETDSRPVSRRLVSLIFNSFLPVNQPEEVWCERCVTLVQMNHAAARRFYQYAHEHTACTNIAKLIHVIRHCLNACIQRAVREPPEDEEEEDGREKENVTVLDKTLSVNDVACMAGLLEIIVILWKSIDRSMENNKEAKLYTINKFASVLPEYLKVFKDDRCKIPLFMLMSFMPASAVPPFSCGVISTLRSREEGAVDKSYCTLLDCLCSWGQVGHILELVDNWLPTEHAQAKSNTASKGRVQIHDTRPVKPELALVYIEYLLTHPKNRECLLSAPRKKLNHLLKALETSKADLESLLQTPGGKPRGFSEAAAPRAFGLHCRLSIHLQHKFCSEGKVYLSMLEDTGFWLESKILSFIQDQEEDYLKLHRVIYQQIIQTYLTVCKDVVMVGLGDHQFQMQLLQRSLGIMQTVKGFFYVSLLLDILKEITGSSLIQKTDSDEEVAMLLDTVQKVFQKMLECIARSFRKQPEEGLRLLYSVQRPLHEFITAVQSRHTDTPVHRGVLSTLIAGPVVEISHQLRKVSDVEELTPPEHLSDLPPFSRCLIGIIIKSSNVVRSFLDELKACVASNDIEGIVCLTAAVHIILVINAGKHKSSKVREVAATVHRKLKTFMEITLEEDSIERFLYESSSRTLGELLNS

[2] = biological target: condensin II pentamer (recombinant, human) (human, UniProt O95347;Q9NTJ3;Q6IBW4;P42695;Q86XI2); assay: cross-linking
[3] = biological target: SMC2 (in recombinant human condensin II) (human, UniProt O95347 1-1197); assay: cryo-EM structure
[4] = biological target: SMC4 (in recombinant human condensin II) (human, UniProt Q9NTJ3 2-1288); assay: cryo-EM structure
[5] = biological target: T2, CAP-D3 (in recombinant human condensin II) (human, UniProt P42695 1-1498); assay: cryo-EM structure
T2 sequence: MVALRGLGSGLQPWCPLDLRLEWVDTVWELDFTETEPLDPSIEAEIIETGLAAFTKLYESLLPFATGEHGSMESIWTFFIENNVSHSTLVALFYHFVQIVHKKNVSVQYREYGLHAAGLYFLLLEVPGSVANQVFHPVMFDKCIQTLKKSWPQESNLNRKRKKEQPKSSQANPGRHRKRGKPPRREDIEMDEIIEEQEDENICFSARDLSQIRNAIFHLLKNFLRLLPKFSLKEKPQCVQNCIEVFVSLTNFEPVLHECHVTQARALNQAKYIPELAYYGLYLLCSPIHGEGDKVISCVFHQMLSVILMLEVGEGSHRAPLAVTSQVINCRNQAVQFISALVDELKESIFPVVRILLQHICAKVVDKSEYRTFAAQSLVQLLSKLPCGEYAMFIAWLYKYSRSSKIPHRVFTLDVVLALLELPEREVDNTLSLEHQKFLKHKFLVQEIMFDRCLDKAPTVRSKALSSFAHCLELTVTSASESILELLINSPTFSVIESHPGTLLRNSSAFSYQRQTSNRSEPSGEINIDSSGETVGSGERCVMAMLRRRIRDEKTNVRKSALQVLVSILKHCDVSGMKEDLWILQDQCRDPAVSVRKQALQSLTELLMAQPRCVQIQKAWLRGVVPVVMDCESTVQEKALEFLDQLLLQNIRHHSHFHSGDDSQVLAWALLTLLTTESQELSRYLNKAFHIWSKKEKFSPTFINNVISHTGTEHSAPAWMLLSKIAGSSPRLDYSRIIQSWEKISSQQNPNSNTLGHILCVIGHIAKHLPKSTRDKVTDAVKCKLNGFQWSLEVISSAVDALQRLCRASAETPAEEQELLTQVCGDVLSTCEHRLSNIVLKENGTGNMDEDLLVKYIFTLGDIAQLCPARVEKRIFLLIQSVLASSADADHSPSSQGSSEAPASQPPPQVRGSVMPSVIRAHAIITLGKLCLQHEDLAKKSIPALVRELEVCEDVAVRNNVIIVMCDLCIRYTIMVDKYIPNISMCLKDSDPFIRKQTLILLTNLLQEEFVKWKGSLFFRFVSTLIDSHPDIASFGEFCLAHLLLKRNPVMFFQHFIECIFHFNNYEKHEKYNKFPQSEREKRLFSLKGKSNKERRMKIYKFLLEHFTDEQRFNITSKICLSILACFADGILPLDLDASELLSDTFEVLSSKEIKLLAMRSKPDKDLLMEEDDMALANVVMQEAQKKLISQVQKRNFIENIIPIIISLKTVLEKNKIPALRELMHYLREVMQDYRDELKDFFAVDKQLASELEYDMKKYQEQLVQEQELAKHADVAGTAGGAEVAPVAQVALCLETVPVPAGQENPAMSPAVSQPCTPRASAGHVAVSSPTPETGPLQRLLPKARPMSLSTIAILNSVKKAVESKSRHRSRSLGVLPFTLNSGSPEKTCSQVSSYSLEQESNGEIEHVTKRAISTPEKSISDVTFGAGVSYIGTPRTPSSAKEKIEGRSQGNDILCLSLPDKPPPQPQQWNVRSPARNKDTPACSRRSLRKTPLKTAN

[6] = biological target: T1, CAP-G2 (in recombinant human condensin …); assay: cryo-EM structure

Measured: binding result

Sequence of SMC2 (in recombinant human condensin II) (O95347 whole entry): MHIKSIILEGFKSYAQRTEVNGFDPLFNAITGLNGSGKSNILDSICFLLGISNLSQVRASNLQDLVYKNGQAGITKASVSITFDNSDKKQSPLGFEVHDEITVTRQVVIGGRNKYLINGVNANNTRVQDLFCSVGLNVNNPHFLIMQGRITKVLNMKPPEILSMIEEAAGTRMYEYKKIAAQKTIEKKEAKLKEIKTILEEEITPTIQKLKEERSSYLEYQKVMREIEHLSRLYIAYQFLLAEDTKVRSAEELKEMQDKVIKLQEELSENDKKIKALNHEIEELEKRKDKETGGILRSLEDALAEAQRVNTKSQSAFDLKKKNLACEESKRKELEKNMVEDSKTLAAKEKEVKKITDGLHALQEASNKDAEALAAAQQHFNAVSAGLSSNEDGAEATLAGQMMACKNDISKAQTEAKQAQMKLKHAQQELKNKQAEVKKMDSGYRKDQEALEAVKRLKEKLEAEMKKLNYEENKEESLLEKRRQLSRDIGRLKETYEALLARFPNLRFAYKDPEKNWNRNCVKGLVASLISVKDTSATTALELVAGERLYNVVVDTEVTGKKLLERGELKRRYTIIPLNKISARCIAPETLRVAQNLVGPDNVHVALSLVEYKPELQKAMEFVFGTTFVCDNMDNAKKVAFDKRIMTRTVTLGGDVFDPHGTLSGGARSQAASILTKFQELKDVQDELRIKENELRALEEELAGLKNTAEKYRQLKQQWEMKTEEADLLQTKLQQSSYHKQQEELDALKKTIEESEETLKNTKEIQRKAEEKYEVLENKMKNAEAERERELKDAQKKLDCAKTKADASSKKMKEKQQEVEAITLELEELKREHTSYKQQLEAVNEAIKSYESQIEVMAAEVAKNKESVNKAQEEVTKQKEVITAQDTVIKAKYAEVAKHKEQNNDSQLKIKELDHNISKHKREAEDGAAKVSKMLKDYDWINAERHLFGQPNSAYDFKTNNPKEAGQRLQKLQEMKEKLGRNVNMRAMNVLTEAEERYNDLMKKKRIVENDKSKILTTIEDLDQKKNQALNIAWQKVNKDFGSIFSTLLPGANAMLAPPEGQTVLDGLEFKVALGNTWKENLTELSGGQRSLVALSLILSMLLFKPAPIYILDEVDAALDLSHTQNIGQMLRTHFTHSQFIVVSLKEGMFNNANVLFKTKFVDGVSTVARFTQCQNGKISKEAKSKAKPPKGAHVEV
Sequence of condensin II pentamer (recombinant, human) (O95347 whole entry, chain 1 of 2): as the sequence (O95347 whole entry) above
Sequence of condensin II pentamer (recombinant, human) (Q9NTJ3 2-1288, chain 2 of 2): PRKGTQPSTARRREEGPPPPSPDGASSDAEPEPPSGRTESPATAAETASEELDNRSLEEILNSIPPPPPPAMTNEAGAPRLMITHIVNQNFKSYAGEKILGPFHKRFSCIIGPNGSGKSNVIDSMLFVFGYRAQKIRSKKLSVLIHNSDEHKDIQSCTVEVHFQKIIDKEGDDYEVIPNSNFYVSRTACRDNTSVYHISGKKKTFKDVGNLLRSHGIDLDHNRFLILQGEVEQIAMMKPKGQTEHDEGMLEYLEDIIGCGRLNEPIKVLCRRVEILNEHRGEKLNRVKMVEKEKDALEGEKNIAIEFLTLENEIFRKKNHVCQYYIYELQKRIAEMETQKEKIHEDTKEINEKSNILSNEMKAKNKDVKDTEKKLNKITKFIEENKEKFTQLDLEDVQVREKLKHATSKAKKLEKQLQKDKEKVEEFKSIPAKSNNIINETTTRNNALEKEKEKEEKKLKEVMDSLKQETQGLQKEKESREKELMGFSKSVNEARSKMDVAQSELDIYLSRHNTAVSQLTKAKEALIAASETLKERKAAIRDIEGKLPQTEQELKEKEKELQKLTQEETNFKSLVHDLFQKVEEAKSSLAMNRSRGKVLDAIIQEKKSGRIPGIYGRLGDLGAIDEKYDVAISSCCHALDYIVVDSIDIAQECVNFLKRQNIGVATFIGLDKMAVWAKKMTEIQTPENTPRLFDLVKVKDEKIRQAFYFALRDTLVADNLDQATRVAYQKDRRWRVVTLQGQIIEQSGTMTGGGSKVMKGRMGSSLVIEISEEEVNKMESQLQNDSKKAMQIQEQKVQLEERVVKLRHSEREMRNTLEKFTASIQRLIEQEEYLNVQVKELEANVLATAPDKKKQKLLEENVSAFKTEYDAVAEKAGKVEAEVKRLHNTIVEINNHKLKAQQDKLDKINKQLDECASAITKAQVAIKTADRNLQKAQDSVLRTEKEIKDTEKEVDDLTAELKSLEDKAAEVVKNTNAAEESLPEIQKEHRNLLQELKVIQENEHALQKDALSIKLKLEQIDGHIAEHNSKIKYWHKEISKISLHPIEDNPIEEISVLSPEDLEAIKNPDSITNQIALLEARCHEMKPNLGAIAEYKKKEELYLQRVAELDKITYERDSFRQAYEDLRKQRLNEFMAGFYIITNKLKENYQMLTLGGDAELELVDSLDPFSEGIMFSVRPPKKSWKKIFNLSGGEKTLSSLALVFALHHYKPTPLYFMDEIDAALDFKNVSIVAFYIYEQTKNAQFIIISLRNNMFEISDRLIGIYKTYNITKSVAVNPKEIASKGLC
Sequence of SMC4 (in recombinant human condensin II) (Q9NTJ3 2-1288): as the sequence (Q9NTJ3 2-1288, chain 2 of 2) above

B1: MBP-MCPH1_(1-435) (domain or fragment)
chain: MAAPILKDVVAYVEVWSSNGTENYSKTFTTQLVDMGAKVSKTFNKQVTHVIFKDGYQSTWDKAQKRGVKLVSVLWVEKCRTAGAHIDESLFPAANMNEHLSSLIKKKRKCMQPKDFNFKTPENDKRFQKKFEKMAKELQRQKTNLDDDVPILLFESNGSLIYTPTIEINSRHHSAMEKRLQEMKEKRENLSPTSSQMIQQSHDNPSNSLCEAPLNISRDTLCSDEYFAGGLHSSFDDLCGNSGCGNQERKLEGSINDIKSDVCISSLVLKANNIHSSPSFTHLDKSSPQKFLSNLSKEEINLQRNIAGKVVTPDQKQAAGMSQETFEEKYRLSPTLSSTKGHLLIHSRPRSSSVKRKRVSHGSHSPPKEKCKRKRSTRRSIMPRLQLCRSEDRLQHVAGPALEALSCGESSYDDYFSPDNLKERYSENLPPESQL
binds: [1] | [2]

B2: CAP-H2 (in recombinant human condensin II) (natural protein)
chain: MEDVEARFAHLLQPIRDLTKNWEVDVAAQLGEYLEELDQICISFDEGKTTMNFIEAALLIQGSACVYSKKVEYLYSLVYQALDFISGKRRAKQLSSVQEDRANGVASSGVPQEAENEFLSLDDFPDSRTNVDLKNDQTPSEVLIIPLLPMALVAPDEMEKNNNPLYSRQGEVLASRKDFRMNTCVPHPRGAFMLEPEGMSPMEPAGVSPMPGTQKDTGRTEEQPMEVSVCRSPVPALGFSQEPGPSPEGPMPLGGGEDEDAEEAVELPEASAPKAALEPKESRSPQQSAALPRRYMLREREGAPEPASCVKETPDPWQSLDPFDSLESKPFKKGRPYSVPPCVEEALGQKRKRKGAAKLQDFHQWYLAAYADHADSRRLRRKGPSFADMEVLYWTHVKEQLETLRKLQRREVAEQWLRPAEEDHLEDSLEDLGAADDFLEPEEYMEPEGADPREAADLDAVPMSLSYEELVRRNVELFIATSQKFVQETELSQRIRDWEDTVQPLLQEQEQHVPFDIHTYGDQLVSRFPQLNEWCPFAELVAGQPAFEVCRSMLASLQLANDYTVEITQQPGLEMAVDTMSLRLLTHQRAHKRFQTYAAPSMAQP
binds: [3] | [4] | [5] | [6]
